Assay results taken from the DeepSol protein solubility set.

Assay: soluble on expression in E. coli; label from the status in PepcDB or PDB records

| Sequence | soluble on expression in E. coli |
| --- | --- |
| MNMKTIEDVFIHLLSDTYSAEKQLTRALAKLARATSNEKLSQAFHAHLEETHGQIERIDQVVESESNLKIKRMKCVAMEGLIEEANEVIESTEKNEVRDAALIAAAQKVEHYEIASYGTLATLAEQLGYRKAAKLLKETLEEEKATDIKLTDLALNNVNKKAENKA | soluble |
| MNMVGHSYGNIAIVYYMLQHGSDTSLPKLVKQVDIAGHFNGIIGMDEPEENSLDGEGKPTSMTGSYEELLSLGDNYPQGQVEVLNIYGNTGKESDERVTNLSSQSLAYLLKGHVKSYQEKKITGLNGQHSKLHETTLVDKPLNAFLWGK | not soluble |
| MNNFILLEEQLIKKSQQKRRTSPSNFKVRFFVLTKASLAYFEDRHGKKRTLKGSIELSRIKCVEIVKSDISIPCHYKYPFQVVHDNYLLYVFAPDRESRQRWVLALKEETRNNNSLVPKYHPNFWMDGKWRCCSQLEKLATGCAQYDPTKNASKKPLPPTPEDNRRPLWEPEETVVIALYDYQTNDPQELALRRNEEYCLLDSSEIHWWRVQDRNGHEGYVPSSYLVEKSPNNLETYEWYNKSISRDKAEKLLLDTGKEGAFMVRDSRTAGTYTVSVFTKAVVSENNPCIKHYHIKETNDNPKRYYVAEKYVFDSIPLLINYHQHNGGGLVTRLRYPVCFGRQKAPVTAGLRYGKWVIDPSELTFVQEIGSGQFGLVHLGYWLNKDKVAIKTIREGAMSEEDFIEEAEVMMKLSHPKLVQLYGVCLEQAPICLVFEFMEHGCLSDYLRTQRGLFAAETLLGMCLDVCEGMAYLEEACVIHRDLAARNCLVGENQVIKVSDFGMTRFVLDDQYTSSTGTKFPVKWASPEVFSFSRYSSKSDVWSFGVLMWEVFSEGKIPYENRSNSEVVEDISTGFRLYKPRLASTHVYQIMNHCWKERPEDRPAFSRLLRQLAEIAESGL | soluble |
| MNNILNQIKKEVNMDLLNGLWPGFKRAAFALYDDEHVYVFHHPLFLKDNDEYRVLKWEEQFKGDTCILFKDYPTAIVNMNRYKDYASLLAIVVHELFHCYQYLNKESRFPNESLGFQYPIIEENIQLRNKERICLYDAVHCKSQAEKNNYIKQFIELREQRASVMGEAFITYEYMVESIEGPAWYVEMNAYNTVCKSDESDTLRKYSGLILDVYDANCNMRKSCYSSGMLLCLLLDEILPEWKISFFNSDKSLYAFLKQNINVDLSLNNEITISKETKQILHFVQNERDKEIKQFYGEEGYDLYIVGDIKLNSFNPMNVKLNGNKVLHKTFLSVSIHNKTYMINQPVLASFEEDFKNMTQVHIIMNEKPIETKNG | not soluble |
| MNNKNLALKAPLSGPVMPLNRVPDPVFSSGTLGEGIAIDPLNDCLHAPCAGLVSHLARTRHALSLRADNGAELLLHVGLDTVQLQGEGFEALVEEGARVIEGQPLLRFDLDRVARGSRSLITVMILTNGDGFQVRPLTTNPVEVGAPLLQLSPEKAEQRPANPAPGEGSAQRQVRGRARVAHHGGLHARPAALLRKTAQGFSSQAELHFAGQVASVDSLVGIMGLGVAEQDEVEVICRGEDSEAALGALLAALASATAGAPKDAPRAIAPGEPARPAAVAGTLAGVCASPGLASGPLARLGAISLPADDGRHRPEEQHLALDQALQRVRDDVQGSLQQARLGGDENEAAIFSAHLALLEDPGLLDAADMLIDQGVGAAHAWHRAIQAQCEILQALGNLLLAERANDLRDLEKRVLRVLLGDTAPLRVPAGAIVAAREITPSDLAPLVDAGAAGLCMAEGGATSHVAILARSKGLPCLVALGAGLLELEEGRQVVLDAGQGRLELSPDARRLEQVALQVAQREEQRRRQQADAQREALTRDGRRIEIGANVASPREAAEAFANGADGVGLLRTEFLFLERRAAPDEEEQRNAYQEVLDAMGQRKVIIRTIDVGGDKHLDYLPLPVEENPALGLRGIHLGQARPELLDQQLRALLRVEPLERCRILLPMVSEVDELRAIRRRLGELATQLGIERLPELGVMIEVPSAALLADQLAEHADFLSIGTNDLSQYALAMDRCHAGLADRIDALHPALLRLIAQTCAGAARHGRWVGVCGALASDPLATPVLVGLGVEELSVGPNLVGEIKTRVRQLDAAECRRHAQALLDLGSARAVRDACLQ | not soluble |
| MNNQKQQKPTLSGQRFKTRKRDEKERFDPTQFQDCIIQGLTETGTDLEAVAKFLDASGAKLDYRRYAETLFDILVAGGMLAPGGTLADDMMRTDVCVFAAQEDLETMQAFAQVFNKLIRRYKYLEKGFEDEVKKLLLFLKGFSESERNKLAMLTGVLLANGTLNASILNSLYNENLVKEGVSAAFAVKLFKSWINEKDINAVAASLRKVSMDNRLMELFPANKQSVEHFTKYFTEAGLKELSEYVRNQQTIGARKELQKELQEQMSRGDPFKDIILYVKEEMKKNNIPEPVVIGIVWSSVMSTVEWNKKEELVAEQAIKHLKQYSPLLAAFTTQGQSELTLLLKIQEYCYDNIHFMKAFQKIVVLFYKAEVLSEEPILKWYKDAHVAKGKSVFLEQMKKFVEWLKNAEEESESEAEEGD | soluble |
| MNNQTMTFTPEQLRKHAQEMLRHAEQLEKTGITKDAIRKDMVPALRELMQAKHRAQKAVDELVDCVAELETRVGKFEKLVQEALR | not soluble |
| MNNVSEERVAEMIWDAVSEGATLKDVHGIPQDMMDGLYAHAYEFYNQGRLDEAETFFRFLCIYDFYNPDYTMGLAAVCQLKKQFQKACDLYAVAFTLLKNDYRPVFFTGQCQLLMRKAAKARQCFELVNERTEDESLRAKALVYLEALKTAETEQHSEQEKELEHHHHHH | soluble |
| MNNYDDLPCSIYFKKPTVQEFVDQPRVFEDSEVPAFQEVLQLPQERTKPPVPSTQPIVAAVEVAKKKSCLSAPKPRKEPPSHPALRQKTVAFGKTVNVSQTVEGTSRNSKKVLASTMSAQNTTTTEEQAAENWRDAMKTELQTIRTEIQEETARRQEELNAQNLVKMQELMSNFFQKITIPKQQAIEPVEKDKENFHESPRQSRQQKPASKIASAREVIKRDGVIPPEALTIIEQRLRSDPMFRQQIDNVLADAECDANRAAYSPPPPMSEVRYGSGVNPALMRETLTVERSIRYDNGLASIDSRQWTNERRDNRAPDSYRTYEPDQPCHSLYQKGQSISYYPSEAAGKTTARNNRTGYYVEDSSDHEEDVVVNKRGQNYHEQAVPETPAERERRIREKYARRK | not soluble |
| MNPDKTVLSCHNPEWRGERPAPSLIARCAQLAMLLEVSASPKPGNVDREHNYPDTCFEHFVASSVAVYPVFELAAKSTGRIGQLLRSAVYESSAWQQGGNTHFGAFLLLIPLAMAAGEISREQGEQPGCGKTFFRIEAEEFENLASHAHAFVRETDCEDAVEFYRAFGHAGVRVNSVEEFDLEDPEATSDLRNQNITLYSLMEIAKGYDLIANEWTSGFGRCLEGAKIILDFMDARNCREEALAGGSVSICSGTGINEAVVYTFLKLLSKHRDTFIQTKFDAETADYVSSRAGEVLSGWEISGKKAGDFASILPRIQEFDSELLDKRINPGSTADIIIAALFIALLGGLRF | not soluble |
| MNPERSERIEIPVLPLRDVVVYPHMVIPLFVGREKSIRCLEAAMDHDKKIMLVAQKEASTDEPGVNDLFTVGTVASILQMLKLPDGTVKVLVEGLQRARISALSDNGEHFSAKAEYLESPTIDEREQEVLVRTAISQFEGYIKLNKKIPPEVLTSLNSIDDPARLADTIAAHMPLKLADKQSVLEMSDVNERLEYLMAMMESEIDLLQVEKRIRNRVKKQMEKSQREYYLNEQMKAIQKELGEMDDAPDENEALKRKIDAAKMPKEAKEKAEAELQKLKMMSPMSAEATVVRGYIDWMVQVPWNARSKVKKDLRQAQEILDTDHYGLERVKDRILEYLAVQSRVNKIKGPILCLVGPPGVGKTSLGQSIAKATGRKYVRMALGGVRDEAEIRGHRRTYIGSMPGKLIQKMAKVGVKNPLFLLDEIDKMSSDMRGDPASALLEVLDPEQNVAFSDHYLEVDYDLSDVMFVATSNSMNIPAPLLDRMEVIRLSGYTEDEKLNIAKRHLLPKQIERNALKKGELTVDDSAIIGIIRYYTREAGVRGLEREISKLCRKAVKQLLLDKSLKHIEINGDNLHDYLGVQRFDYGRADNENRVGQVTGLAWTEVGGDLLTIETACVPGKGKLTYTGSLGEVMQESIQAALTVVRARAEKLGINPDFYEKRDIHVHVPEGATPKDGPSAGIAMCTALVSCLTGNPVRADVAMTGEITLRGQVLPIGGLKEKLLAAHRGGIKTVLIPFENKRDLEEIPDNVIADLDIHPVKRIEEVLTLALQNEPSGMQVVTAK | not soluble |
| MNPIEIIDKFYPQDTEQRHILLIHSLSVAQKALKIVDAHPNLPINRSFVREAALLHDIGIFMTDAPTIQCFGEHPYIAHGYLGADLLRKEGFERHALVCERHTGAGLTLEEIIERQLPVPHREMVPVTLEEQIICFADKFFSKTHLDEEKTVEKARKSIAKYGEEGLNRFDGWCSLFL | not soluble |
